Biological target: H3K9me0 peptide
Test: FP
Details: enzyme; modification not given

B1: Full-length human G9a with an N-terminal MBP tag (MBP:FL-G9a), Q96KQ7 1-1210 (protein)
chain: AAAAGAAAAAAAEGEAPAEMGALLLEKETRGATERVHGSLGDTPRSEETLPKATPDSLEPAGPSSPASVTVTVGDEGADTPVGATPLIGDESENLEGDGDLRGGRILLGHATKSFPSSPSKGGSCPSRAKMSMTGAGKSPPSVQSLAMRLLSMPGAQGAAAAGSEPPPATTSPEGQPKVHRARKTMSKPGNGQPPVPEKRPPEIQHFRMSDDVHSLGKVTSDLAKRRKLNSGGGLSEELGSARRSGEVTLTKGDPGSLEEWETVVGDDFSLYYDSYSVDERVDSDSKSEVEALTEQLSEEEEEEEEEEEEEEEEEEEEEEEEDEESGNQSDRSGSSGRRKAKKKWRKDSPWVKPSRKRRKREPPRAKEPRGVNGVGSSGPSEYMEVPLGSLELPSEGTLSPNHAGVSNDTSSLETERGFEELPLCSCRMEAPKIDRISERAGHKCMATESVDGELSGCNAAILKRETMRPSSRVALMVLCETHRARMVKHHCCPGCGYFCTAGTFLECHPDFRVAHRFHKACVSQLNGMVFCPHCGEDASEAQEVTIPRGDGVTPPAGTAAPAPPPLSQDVPGRADTSQPSARMRGHGEPRRPPCDPLADTIDSSGPSLTLPNGGCLSAVGLPLGPGREALEKALVIQESERRKKLRFHPRQLYLSVKQGELQKVILMLLDNLDPNFQSDQQSKRTPLHAAAQKGSVEICHVLLQAGANINAVDKQQRTPLMEAVVNNHLEVARYMVQRGGCVYSKEEDGSTCLHHAAKIGNLEMVSLLLSTGQVDVNAQDSGGWTPIIWAAEHKHIEVIRMLLTRGADVTLTDNEENICLHWASFTGSAAIAEVLLNARCDLHAVNYHGDTPLHIAARESYHDCVLLFLSRGANPELRNKEGDTAWDLTPERSDVWFALQLNRKLRLGVGNRAIRTEKIICRDVARGYENVPIPCVNGVDGEPCPEDYKYISENCETSTMNIDRNITHLQHCTCVDDCSSSNCLCGQLSIRCWYDKDGRLLQEFNKIEPPLIFECNQACSCWRNCKNRVVQSGIKVRLQLYRTAKMGWGVRALQTIPQGTFICEYVGELISDAEADVREDDSYLFDLDNKDGEVYCIDARYYGNISRFINHLCDPNIIPVRVFMLHQDLRFPRIAFFSSRDIRTGEELGFDYGDRFWDIKSKYFTCQCGSEKCKHSAEAIALEQSRLARLDPHPELLPELGSLPPVNT
- Kd: 66 µM
